Measured values as given in article doi:10.1101/2024.11.13.623393.

Molecular target: microtubule polymers (alpha/beta tubulin)
Experiment: co-sedimentation

fold reduction in binding affinity against wild-type Smc5: 3 fold
B1: Smc5-2KE hinge domain (residues 215 to 885, K624E K631E) (domain or fragment)
chain: LRELQGNEQSLQKDLDFKKAKIVHLRQESDKLRKSVESLRDFQNKKGEIELHSQLLPYVKVKDHKEKLNIYKEEYERAKANLRAILKDKKPFANTKKTLENQVEELTEKCSLKTDEFLKAKEKINEIFEKLNTIRDEVIKKKNQNEYYRGRTKKLQATIISTKEDFLRSQEILAQTHLPEKSVFEDIDIKRKEIINKEGEIRDLISEIDAKANAINHEMRSIQRQAESKTKSLTTTDKIGILNQDQDLKEVRDAVLMVREHPEMKDKILEPPIMTVSAINAQFAAYLAQCVDYNTSKALTVVDSDSYKLFANPILDKFKVNLRELSSADTTPPVPAETVRDLGFEGYLSDFITGDKRVMKMLCQTSKIHTIPVSRRELTPAQIKKLITPRPNGKILFKRIIHGNRLVDIEQSAYGSEQVFPTDVSIKQTNFYQGSIMSNEQKIRIENEIINLKNEYNDRKSTLDALSNQKSGYRHELSELASKNDDINREAHQLNEIRKKYTMRKSTIETLREKLDQLKREARKDVSQKIKDIDDQIQQLLLKQRHLLSKMASSMKSLKNCQKELISTQILQFEAQNMDVSMNDVIGFFNEREADLKSQYEDKKKFVKEMRDTPEFQSWMREIRSYDQDTKEKLNKVAEKYEEEGNFNLSFVQDVLDKLESEIAMVNHDES
